From article doi:10.1101/2021.12.01.470767 (bioRxiv, 2021)
Numbering of substitutions follows the chain as printed.

B1: COVA1-07 (antibody, V domains shown)
VH: QVQLVESGAEVKKPGSSVKVSCKASGGTLSSYAITWVRQAPGQGLEWVGGIIPIFGTANYAQKFQGRVTITADESTSTAYMELSSLRSEDTAVYYCARVGAYDSSGYSNDYWGQGTLVTVSS
VL: DIQLTQSPATLSLSPGERATLSCRASQSVSSYLAWYQQKPGQAPRLLIYDASNRATGIPARFSGSGSGTDFTLTISSLEPEDFAVYYCQQRSNWPPRVTFGGGTKVEIK
B2: COVA2-18 (antibody, V domains shown)
VH: EVQLVQSGAEVKKPGSSVKVSCKASGGTFSSYAISWVRQAPGQGLEWMGGIIPIFGTTNYAQKFQGRVTITTDESTSTAYMELSSLRSEDTAVYYCARVYSYDSSGYYLEYWGQGTRVTVSS
VL: B1 VL with D1E, Q3V, R97S, V98I, G102Q, K105R, V106L
B3: COVA2-14 (antibody, V domains shown)
VH: B2 VH with E1Q, S35I, T58A, Y100R, S101Y, L109E, E110D, R117L
VL: B1 VL with D1E, Q3V, K39E, R97M, V98Y, G102Q

What was measured:
Experiment in all cases: flow cytometry on cells
[1] = biological target: full-length SARS-CoV S, cell surface-expressed (SARS-CoV, strain , UniProt P59594)
[2] = biological target: full-length S of bat CoV SHC014, cell surface-expressed (Bat SARS-like coronavirus RsSHC014, UniProt U5WLK5)
[3] = biological target: full-length S of endemic HCoV NL63, cell surface-expressed (Human coronavirus NL63, strain not …, UniProt Q6Q1S2)
[4] = biological target: full-length S of endemic HCoV OC43, cell surface-expressed (Human coronavirus OC43, strain not …, UniProt P36334)
[5] = biological target: full-length S of endemic HCoV 229E, cell surface-expressed (Human coronavirus 229E, strain not …, UniProt P15423)
[6] = biological target: full-length MERS-CoV S, cell surface-expressed (MERS-CoV, strain , UniProt K9N5Q8)
[7] = biological target: full-length SARS-CoV-2 S (WT), cell surface-expressed (SARS-CoV-2, ancestral (Wuhan-Hu-1), UniProt P0DTC2)

Binder | binding result [1] | binding result [2] | binding result [3] | binding result [4] | binding result [5] | binding result [6] | binding result [7]
B1 | binds | binds | no binding (tested: 50 μg/mL) | no binding (tested: 50 μg/mL) | no binding (tested: 50 μg/mL) | no binding (tested: 50 μg/mL) | binds
B2 | binds | binds | no binding (tested: 50 μg/mL) | no binding (tested: 50 μg/mL) | no binding (tested: 50 μg/mL) | no binding (tested: 50 μg/mL) | binds
B3 | binds | binds | no binding (tested: 50 μg/mL) | no binding (tested: 50 μg/mL) | no binding (tested: 50 μg/mL) | no binding (tested: 50 μg/mL) | binds
